Source: patent US20230414780A1

Tests used:
[1] = biological target: murine TfR expressed by murine neuroblastoma Neuro-2a cells (mouse) (UniProt Q62351); test: cell-based or functional assay
[2] = biological target: murine TfR expressed by murine neuroblastoma Neuro-2a cells (mouse) (UniProt Q62351); test: competition with C5-Alexa680 (100 nM) on living Neuro-2a cells, 3 hrs at 37 C, flow cytometry; Ki/app, mean ± SD

Sequence of murine TfR expressed by murine neuroblastoma Neuro-2a cells (mouse) (Q62351 whole entry): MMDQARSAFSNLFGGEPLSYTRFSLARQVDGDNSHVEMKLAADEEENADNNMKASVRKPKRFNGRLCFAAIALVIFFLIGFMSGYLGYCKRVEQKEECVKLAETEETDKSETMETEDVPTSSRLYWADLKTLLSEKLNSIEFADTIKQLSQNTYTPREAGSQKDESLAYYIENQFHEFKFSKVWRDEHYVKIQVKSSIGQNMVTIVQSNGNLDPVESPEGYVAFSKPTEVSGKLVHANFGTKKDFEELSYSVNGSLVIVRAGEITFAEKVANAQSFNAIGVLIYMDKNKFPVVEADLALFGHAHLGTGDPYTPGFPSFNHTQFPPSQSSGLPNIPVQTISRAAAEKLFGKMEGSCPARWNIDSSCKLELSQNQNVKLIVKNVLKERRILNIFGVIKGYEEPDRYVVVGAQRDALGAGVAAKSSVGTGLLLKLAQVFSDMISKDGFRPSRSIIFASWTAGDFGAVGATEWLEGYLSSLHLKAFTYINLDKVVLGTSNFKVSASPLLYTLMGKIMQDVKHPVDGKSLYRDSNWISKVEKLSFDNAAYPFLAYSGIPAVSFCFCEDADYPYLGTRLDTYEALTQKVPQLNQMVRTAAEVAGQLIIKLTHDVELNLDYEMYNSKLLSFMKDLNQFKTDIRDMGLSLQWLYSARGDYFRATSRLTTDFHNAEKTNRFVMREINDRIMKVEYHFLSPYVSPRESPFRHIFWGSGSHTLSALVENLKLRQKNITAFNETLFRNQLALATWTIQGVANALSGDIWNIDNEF

IC50 of mSOD1 mRNA downregulation, free uptake on Neuro-2a cells [1]: 8.7 nM
Ki [2]: 494 nM
B1: C5-hFc-siSOD1m-5'VP (Fc fusion, part only; not given: Fc knob and hole arms, part only)
chain, part: EVQLVESGGGVVQPGGSLKLSCVASGTDFSINFIRWYRQAPGKQREFVAGFTATGNTNYADSMKGRFTISRDNTKNAVYLQIDSLKPEDTAVYYCYMLDKWGQGTQVTVSS
